Laboratory results reported in paper PMC2995291.
Like-named read-outs stand apart in the source and are kept apart here.

Experiments:
[1] = target: human ubiquitin with noncleavable N-terminal (His)6 tag (human) (UniProt P0CG48); experiment: ITC
[2] = target: human ubiquitin with noncleavable N-terminal (His)6 tag (human) (UniProt P0CG48); experiment: ITC; remark: listed apart in the source

Kd [1] [µM] | Kd [2] [µM] | dH (kcal · mol^−1) [2] | stoichiometry N [2] | Substance
23 |  |  |  | human Polι UBM2 (residues 674–715) (domain or fragment)
23.6 | 23.8 | 4.5 | 1.01 | human Polι UBM2 (residues 679–707) (domain or fragment)
 | 172 |  |  | human Polι UBM2 P692A (residues 674–715) (domain or fragment)
